According to paper PMC10065082 (The Journal of Clinical Investigation, 2023):

Experiments:
Conditions in all cases: both partners purified
[1] = molecular target: T1, WT calmodulin (UniProt P0DP23 1-149); experiment: ITC; Microcal VP-ITC, 25°C, 10 mM Mops, 2 mM EGTA, 1 mM TCEP, 150 mM KCl, 1.93 mM CaCl2, pH 7, 10 uM free Ca2+; NaV1.6CTD (73-110 uM) peptide and WT-CaM (12 uM) or D96V-CaM (16 uM); fitted to a one-binding site per monomer model
T1 construct: calmodulin, recombinant; Legends say the recombinant CaMs were not FLAG tagged in the patch-clamp experiments; nothing is said of tags for ITC; also called WT CaM; WT-CaM

[2] = molecular target: T1, WT calmodulin; experiment: ITC; Microcal VP-ITC, 25°C, 10 mM Mops, 2 mM EGTA, 1 mM TCEP, 150 mM KCl, pH 7, 0 Ca2+; NaV1.5CTD (55-75 uM) or NaV1.6CTD (73-110 uM) peptide and WT CaM or D96V-CaM (5-15 uM); fitted to a model of 1 binding site per monomer
[3] = molecular target: T2, wild-type calmodulin (UniProt P0DP23 1-149); experiment: ITC; 0 Ca2+; Microcal VP-ITC, 25°C, 10 mM Mops, 2 mM EGTA, 1 mM TCEP, 150 mM KCl, pH 7; NaV1.5CTD (55-75 uM) or NaV1.6CTD (73-110 uM) peptides and WT CaM or D96V-CaM (5-15 uM); 28 injections; fitted to a model of 1 binding site per monomer
T2 construct: Calmodulin (CaM), recombinant; GenBank M19381.1 (mouse CaM I) is printed only for the transgene of the mice, not for the recombinant protein; also called WT CaM; CaM

[4] = molecular target: T2, wild-type calmodulin; experiment: ITC; in the presence of 10 uM free Ca2+; NaV1.6CTD peptide and WT CaM or D96V-CaM

B1: hNaV1.6CTD peptide (residues 1891-1918 of human NaV1.6) (peptide)
peptide: RRKQEEVSAVVLQRAYRGHLARRGFICK
notes: human NaV1.6 carboxy terminal domain stretch with the IQ motif, residues 1891-1918; source: synthetic peptide (LifeTein), at least 90% purity by HPLC
stoichiometry N [1]: 1
stoichiometry N [2]: 1

B2: hNaV1.6CTD peptide (residues 1891-1918 of human NaV1.6) (peptide)
peptide: RRKQEEVSAVVLQRAYRGHLARRGFICK
notes: Carboxy terminal domain peptide with the IQ motif of human NaV1.6, residues 1891-1918; source: synthetic peptide (LifeTein), at least 90% purity by HPLC
Kd [3]: 243 nM
Kd [4]: 132 nM
